Experimental data taken from patent US5444153, “Variants of PAI-2” (Biotech Australia Pty Limited, dated 1995).
Numbering of substitutions follows the chain as printed. Each block holds one binder with its values, some of them ahead of it.

Assays:
Experiment in all cases: incubation of the purified proteins; SDS-PAGE and western blot with anti-PAI-2
[1] = molecular target: two chain t-PA (American Diagnostica) (Homo sapiens (Human), UniProt P00750)
[2] = molecular target: single chain t-PA (American Diagnostica) (Homo sapiens (Human), UniProt P00750)
u-PA (Behring) = u-PA (Behring) (Homo sapiens (Human), UniProt P00749)

binding result [1]: binds
binding result [2]: binds
B1: native PAI-2 (as expressed from pBTA641) (other)
chain: MEDLCVANTLFALNLFKHLAKASPTQNLFLSPWSISSTMAMVYMGSRGSTEDQMAKVLQFNEVGANAVTPMTPENFTSCGFMQQIQKGSYPDAILQAQAADKIHSSFRSLSSAINASTGNYLLESVNKLFGEKSASFREEYIRLCQKYYSSEPQAVDFLECAEEARKKINSWVKTQTKGKIPNLLPEGSVDGDTRMVLVNAVYFKGKWKTPFEKKLNGLYPFRVNSAQRTPVQMMYLREKLNIGYIEDLKAQILELPYAGDVSMFLLLPDEIADVSTGLELLESEITYDKLNKWTSKDKMAEDEVEVYIPQFKLEEHYELRSILRSMGMEDAFNKGRANFSGMSERNDLFLSEVFHQAMVDVNEEGTEAAAGTGGVMTGRTGHGGPQFVADHPFLFLIMHKITNCILFFGRFSSP

binding result [1]: binds
binding result [2]: binds
B2: second form of native PAI-2 (alternative native PAI-2, expressed from pBTA 683) (other)
chain: B1 chain with N120D, N404K, S413C

binding result [1]: binds
binding result (u-PA (Behring)): binds
binding result [2]: binds
B3: PAI-2 deletion variant Δ74-96 (as expressed from pBTA829) (other)
chain: MEDLCVANTLFALNLFKHLAKASPTQNLFLSPWSISSTMAMVYMGSRGSTEDQMAKVLQFNEVGANAVTPMTPAQAADKIHSSFRSLSSAINASTGNYLLESVNKLFGEKSASFREEYIRLCQKYYSSEPQAVDFLECAEEARKKINSWVKTQTKGKIPNLLPEGSVDGDTRMVLVNAVYFKGKWKTPFEKKLNGLYPFRVNSAQRTPVQMMYLREKLNIGYIEDLKAQILELPYAGDVSMFLLLPDEIADVSTGLELLESEITYDKLNKWTSKDKMAEDEVEVYIPQFKLEEHYELRSILRSMGMEDAFNKGRANFSGMSERNDLFLSEVFHQAMVDVNEEGTEAAAGTGGVMTGRTGHGGPQFVADHPFLFLIMHKITNCILFFGRFSSP
